Source: article PMC12052844 (iScience, 2025)

How the values were obtained:
EphA4 receptor on cells = EphA4 receptor on cells (UniProt Q03137); test: flow cytometry on cells
[1] = target: T1, full-length wild-type EphB2 on the surface of Expi293F cells (mouse, UniProt P54763-3); test: flow cytometry on cells
T1 sequence: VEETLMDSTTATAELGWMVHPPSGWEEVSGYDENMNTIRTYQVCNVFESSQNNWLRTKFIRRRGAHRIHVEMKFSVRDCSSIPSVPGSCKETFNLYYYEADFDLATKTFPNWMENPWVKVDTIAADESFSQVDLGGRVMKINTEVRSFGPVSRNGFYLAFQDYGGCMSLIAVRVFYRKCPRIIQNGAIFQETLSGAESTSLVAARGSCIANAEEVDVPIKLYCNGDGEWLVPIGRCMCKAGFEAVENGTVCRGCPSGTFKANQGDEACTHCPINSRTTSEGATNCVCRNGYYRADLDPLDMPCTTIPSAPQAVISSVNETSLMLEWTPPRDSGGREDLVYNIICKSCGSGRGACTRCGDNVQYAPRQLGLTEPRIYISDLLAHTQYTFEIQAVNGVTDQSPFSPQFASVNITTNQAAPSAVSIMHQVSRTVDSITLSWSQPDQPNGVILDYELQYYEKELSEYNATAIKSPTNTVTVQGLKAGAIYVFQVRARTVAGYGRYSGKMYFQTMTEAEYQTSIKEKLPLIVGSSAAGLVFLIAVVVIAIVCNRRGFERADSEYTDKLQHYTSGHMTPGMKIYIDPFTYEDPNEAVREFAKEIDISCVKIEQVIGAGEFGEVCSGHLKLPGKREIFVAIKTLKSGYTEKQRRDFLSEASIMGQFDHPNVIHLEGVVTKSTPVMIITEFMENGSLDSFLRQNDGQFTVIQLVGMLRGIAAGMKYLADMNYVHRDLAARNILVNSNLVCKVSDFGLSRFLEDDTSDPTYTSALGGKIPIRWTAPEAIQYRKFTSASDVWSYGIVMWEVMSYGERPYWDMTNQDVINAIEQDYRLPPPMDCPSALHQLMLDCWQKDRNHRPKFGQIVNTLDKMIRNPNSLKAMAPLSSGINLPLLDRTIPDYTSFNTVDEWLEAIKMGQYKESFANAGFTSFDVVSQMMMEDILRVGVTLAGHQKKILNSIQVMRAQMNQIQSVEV

EphA4 receptor on cells, sequence (Q03137 20-986): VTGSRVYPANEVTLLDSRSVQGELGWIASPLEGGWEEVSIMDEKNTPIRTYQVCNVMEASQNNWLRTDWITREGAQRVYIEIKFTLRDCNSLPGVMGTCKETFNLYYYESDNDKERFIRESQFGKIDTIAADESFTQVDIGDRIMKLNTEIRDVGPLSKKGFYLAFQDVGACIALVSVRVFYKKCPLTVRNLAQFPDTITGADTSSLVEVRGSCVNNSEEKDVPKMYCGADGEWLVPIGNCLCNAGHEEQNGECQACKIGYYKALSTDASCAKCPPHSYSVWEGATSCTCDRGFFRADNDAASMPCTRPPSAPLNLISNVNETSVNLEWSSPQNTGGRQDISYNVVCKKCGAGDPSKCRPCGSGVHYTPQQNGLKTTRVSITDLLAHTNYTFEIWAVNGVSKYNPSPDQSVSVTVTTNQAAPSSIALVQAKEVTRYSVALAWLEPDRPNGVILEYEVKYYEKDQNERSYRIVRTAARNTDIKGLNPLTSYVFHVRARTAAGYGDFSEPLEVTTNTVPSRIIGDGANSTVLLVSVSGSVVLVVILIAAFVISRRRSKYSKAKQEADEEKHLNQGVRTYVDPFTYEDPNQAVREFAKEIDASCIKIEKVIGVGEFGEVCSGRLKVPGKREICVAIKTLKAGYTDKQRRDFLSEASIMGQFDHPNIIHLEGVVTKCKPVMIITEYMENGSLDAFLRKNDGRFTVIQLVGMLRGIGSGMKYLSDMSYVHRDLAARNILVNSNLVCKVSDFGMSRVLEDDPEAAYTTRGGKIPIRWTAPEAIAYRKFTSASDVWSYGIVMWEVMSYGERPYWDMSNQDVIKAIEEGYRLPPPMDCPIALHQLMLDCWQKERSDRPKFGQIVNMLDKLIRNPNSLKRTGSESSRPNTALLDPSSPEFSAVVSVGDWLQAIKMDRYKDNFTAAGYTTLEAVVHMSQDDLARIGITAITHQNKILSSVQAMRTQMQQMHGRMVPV

pre-clustered ephrin-B2 (receptor binding domain of murine ephrin-B2, residues 30-170, biotinylated) (from UniProt P52800 30-170) (ligand)
Kd (EphA4 receptor on cells): 501 nM

B1: ephrin-B1 (ligand)
chain: ATPLAKNLEPVSWSSLNPKFLSGKGLVIYPKIGDKLDIICPRAEAGRPYEYYKLYLVRPEQAAACSTVLDPNVLVTCNKPHQEIRFTIKFQEFSPNYMGLEFKKYHDYYITSTSNGSLEGLENREGGVCRTRTMKIVMKVGQDPNAVTPEQLTTSRPSKESDNTVKTATQAPGRGSQGDSDGKHETVNQEEKSGPGAGGGGSGDSDSFFNSK
Kd [1]: 6.64 nM

B2: pre-clustered ephrin-B2 (receptor binding domain of murine ephrin-B2, residues 30-170, biotinylated) (ligand)
chain: SIVLEPIYWNSSNSKFLPGQGLVLYPQIGDKLDIICPKVDSKTVGQYEYYKVYMVDKDQADRCTIKKENTPLLNCARPDQDVKFTIKFQEFSPNLWGLEFQKNKDYYIISTSNGSLEGLDNQEGGVCQTRAMKILMKVGQD
modifications: biotin on the Avi tag (BirA)
Kd [1]: 3.53 nM

B3: pre-clustered ephrin-A5 (receptor binding domain of murine ephrin-A5, residues 28-164, biotinylated) (ligand)
chain: VADRYAVYWNSSNPRFQRGDYHIDVCINDYLDVFCPHYEDSVPEDKTERYVLYMVNFDGYSACDHTSKGFKRWECNRPHSPNGPLKFSEKFQLFTPFSLGFEFRPGREYFYISSAIPDNGRRSCLKLKVFVRPTNSC
modifications: biotin on the Avi tag (BirA)
Kd [1]: 112 nM
